From paper PMC6677818

Assays:
[1] = biological target: calcineurin, WT CN (CNA_(1–370):CNB_(1–170)) (human) (UniProt Q08209)
[2] = biological target: calcineurin, WT CN (CNA_(1–370):CNB_(1–170)) (human) (UniProt Q08209); assay: ITC; NHE1 or variants (30–50 µM, syringe) titrated into CN (5–10 µM, cell), 25 °C, 20 mM Tris–HCl pH 7.5, 100 mM NaCl, 1 mM CaCl2, 0.5 mM TCEP; single site-binding model
[3] = biological target: CNA alone (alpha isoform: H27-D348; two C-terminal Asp residues added) (human) (UniProt Q08209)
[4] = biological target: CNAA variant (CNA: H155A/Y159A, CNB), crystallisation construct CNA M1-N370 H155A Y159A, CNB 16–170 (human) (UniProt Q08209)

Sequence of UniProt Q08209 (Q08209 other isoform, or with tags, fused parts or gaps): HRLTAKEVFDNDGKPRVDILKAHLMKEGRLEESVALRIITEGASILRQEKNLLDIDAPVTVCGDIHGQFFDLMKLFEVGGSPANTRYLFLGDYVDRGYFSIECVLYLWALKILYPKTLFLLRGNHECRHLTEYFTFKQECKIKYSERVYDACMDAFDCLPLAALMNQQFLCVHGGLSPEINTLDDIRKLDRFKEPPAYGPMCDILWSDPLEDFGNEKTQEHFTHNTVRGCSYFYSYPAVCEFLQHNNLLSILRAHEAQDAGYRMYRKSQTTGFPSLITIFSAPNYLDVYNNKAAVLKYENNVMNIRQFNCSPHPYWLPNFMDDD

apparent in vitro dephosphorylation rate k (dephos) of pT779 of ERK2-phosphorylated NHE1ct variant by CN (NMR time course) [1]	Kd [2]	dH [2]	apparent in vitro dephosphorylation rate k (dephos) of pT779 of ERK2-phosphorylated NHE1ct by CNA alone (NMR time course) [3]	apparent in vitro dephosphorylation rate k (dephos) of pT779 of ERK2-phosphorylated NHE1ct by CNAA (NMR time course; 20:1 NHE1ct:CN, rate normalized using wt-NHE1ct) [4]	stoichiometry N [2]	Substance
0.028 h^-1	48 nM	-2.8 kcal/mol	–	–	–	NHE1ct P782A (NHE1 I680-Q815) (from UniProt P19634 680-815) (domain or fragment)
–	59 nM	-12 kcal/mol	0.347 h^-1	0.06 h^-1	1	NHE1ct WT (human NHE1 I680-Q815) (from UniProt P19634 680-815) (domain or fragment)
0.642 h^-1	4800 nM	-4.5 kcal/mol	–	–	–	NHE1ct_(ATAP) (NHE1 I680-Q815, L684A, V686A) (from UniProt P19634 680-815) (domain or fragment)
0.811 h^-1	–	–	–	–	–	NHE1ct_(ATAP/AVATAA) (NHE1 I680-Q815, L684A, V686A, P715A, I717A, I719A, D720A) (from UniProt P19634 680-815) (domain or fragment)
0.011 h^-1	2400 nM	-7.6 kcal/mol	–	–	–	NHE1ct_(AVATAA) (NHE1 I680-Q815, P715A, I717A, I719A, D720A) (from UniProt P19634 680-815) (domain or fragment)
–	21 nM	-12.2 kcal/mol	–	–	–	NHE1ct_(Δ92RARA) (NHE1ctΔ92 698AAA700; R698A, R700A) (from UniProt P19634 680-723) (domain or fragment)
–	21 nM	-8.5 kcal/mol	–	–	–	NHE1ctΔ92 (NHE1 I680-S723) (from UniProt P19634 680-723) (domain or fragment)
–	4 nM	-9 kcal/mol	–	–	–	NHE1ctΔ92 (PVIVIT) (from UniProt P19634 680-723) (domain or fragment)
–	6500 nM	-2.9 kcal/mol	–	–	–	PxIxIT peptide (NHE1 E709-P727) (from UniProt P19634 709-727)
